Measurements from publication PMC4863989.

What was measured:
[1] = target: expanded form (EX) of the P22 virus-like particle (bacteriophage P22) (UniProt P26747); experiment: SPR
[2] = target: expanded form (EX) of the P22 virus-like particle (bacteriophage P22) (UniProt P26747); experiment: SEC-MALS
[3] = target: Dec truncated by the first 11 N-terminal residues (bacteriophage L); experiment: SEC
[4] = target: Dec truncated by the first 20 N-terminal residues (bacteriophage L); experiment: SEC
[5] = target: decoration protein (Dec) from bacteriophage L, wild type with N-terminal 6x histidine tag (bacteriophage L); experiment: SEC

Row | Substance | KD1 (tight site, two-site fit) [1] | ka1 (tight site, two-site fit) [1] | stoichiometry N (Dec monomers per particle) [2] | kd1 (tight site, two-site fit) [1] | also measured
1 | Dec fused at its C-terminus to the 21 amino acid CD47 mimic Self-peptide | 18.3 nM | 11200 M⁻¹ s⁻¹ | 114 | – | –
2 | Dec fused at its C-terminus to the soluble region of murine CD40L (from UniProt P27548 112-260) | 30.8 nM | 6440 M⁻¹ s⁻¹ | 51 | 0.0002 s⁻¹ | –
3 | Dec truncated by the first 11 N-terminal residues (domain or fragment) | – | – | 214 | – | stoichiometry N [3]: 3
4 | Dec truncated by the first 20 N-terminal residues (domain or fragment) | – | – | – | – | stoichiometry N [4]: 3
5 | decoration protein (Dec) from bacteriophage L, wild type with N-terminal 6x histidine tag (natural protein) | – | 11500 M⁻¹ s⁻¹ | 155 | 0.000106 s⁻¹ | stoichiometry N [5]: 3; KD2 (weak site, two-site fit) [1]: 1500 nM; Kd [1]: 24 nM; half-life of binding at the tight site [1]: > 60 h; ka2 (weak site, two-site fit) [1]: 1980 M⁻¹ s⁻¹; koff [1]: 0.00033 s⁻¹; kon [1]: 13800 M⁻¹ s⁻¹
